Assay results as given in publication PMC5018249.

How the values were obtained:
[1] = molecular target: BG505 SOSIP.D664 (HIV-1 strain BG505); test: SEC-MALS + other: negative-stain electron microscopy; in-house purified BG505 SOSIP trimers, thawed and analysed
[2] = molecular target: BG505 SOSIP-GT3-PADRE (HIV-1 strain BG505); test: SEC-MALS; purified immunogen in solution; conditions not given

Which stoichiometry N [1] does the source give for BG505 SOSIP.D664 (domain or fragment) here?
Its stoichiometry N is 3.

BG505 SOSIP-GT3-PADRE was tested. Which stoichiometry N [2] did it give?
Its stoichiometry N is 3.
